Measurements published in the supplement of paper PMC12042874.
± gives the uncertainty stated by the source.

experiment: amyloid nucleation score (Sup35N fusion, yeast selection) (log enrichment); library NNK2; higher = more nucleation; inactive = no reads after selection
How it was run: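 The nucleation score is a DiMSum log enrichment of output over input reads, centred on the mode score of non-aggregating sequences. Sequences under 100 input reads were excluded, and reads came from Illumina sequencing of plasmid inserts. Psi-negative yeast expressing Sup35N fused to peptides of 20 random codons were induced with 100 μM copper sulfate for 24 hours and grown 7 days at 30°C on medium lacking adenine and uracil. Random libraries had three technical output replicates.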

Substance	amyloid nucleation score
WYKVDFNAWLFCKTIAHIFA	-1.1 ± 0.45
WYSMISLSRTNIYRMFYVPV	-0.453 ± 0.53
WYSSGMTGIIRRVDKWCAFS	-0.939 ± 0.45
WYSVLSFDSFFWPWALLVVY	-1.16 ± 0.49
YAFHSSWYADRSALLQLN	0.434 ± 0.3
YAFQGHGNFETGSYPEVLAA	0.098 ± 0.49
YAIDRRKSL	inactive
YAIFYGRLNMCGSGLSVPRE	0.381 ± 0.62
YALRLLHGSYNSNT	3.31 ± 0.084
YANVA	-1.65 ± 0.75
YARGNFKSLCCPMV	-0.927 ± 0.78
YASISI	inactive
YCAFSMYMFKGIIRYAICVV	-1.25 ± 0.38
YCGGFGGFWVEYWWDKYPTC	-0.171 ± 0.23
YCGRWELAVWY	-0.679 ± 1.1
YCGVSLFSINTYSY	6.94 ± 0.05
YCHLVV	2.04 ± 0.087
YCHPFVRHRLKLCTDACY	-0.174 ± 0.31
YCHPILMRYKPVYTCHYSLM	4.86 ± 0.053
YCKQNESVLDPSIDSLRVLP	0.673 ± 0.26
YCSLLL	4.79 ± 0.074
YCTGPVIWPWHKGLLSWYAW	1.19 ± 0.57

Substance	amyloid nucleation score
YCYKSCCRDKLY	-0.072 ± 1.1
YDGSVKMGVFCGVRVYAPVS	-0.191 ± 1.1
YDLSLVWWSTMFFRLCSLGC	-0.601 ± 0.41
YDQSICLVRNVIAIYDMGSV	6.81 ± 0.084
YDVRLFKLTTTSFAIVLSEW	0.823 ± 0.21
YEGPWQLIVVSTISVFTNSC	-0.156 ± 0.38
YELNSLMKMSYAEQFPKTWA	0.447 ± 0.46
YEPRSNLCCIINTIKFPKTI	6.169 ± 0.031
YETCSFKNPTFFPRNLYKMW	-0.103 ± 0.46
YEVHDDLYYTNKLRTRANGV	1.46 ± 0.43
YEVTRRVSWAFDRMYCRVNR	0.101 ± 0.55
YFCRMMCLNRWIGRLLFRCN	0.775 ± 0.62
YFGGFAKRQSTLPATRKYRL	1.34 ± 0.52
YFGSIIIYRIPAVPQILSVN	inactive
YFIGFSSSMNFGYFMRVYRI	inactive
YFNPI	5.196 ± 0.047
YFNRIYYTDIYNMVALVICF	4.4 ± 0.12
YFSDLDAL	inactive
YFSGCSSFVS	-0.046 ± 0.49
YFTNFWLLCLLSG	4.34 ± 0.079
YFWDQGLHPVSFRESTYDLV	-0.243 ± 1.1
YGGDVSP	0.1 ± 0.4

Substance	amyloid nucleation score
YGHFWDFGVPIASSISYKKG	-0.029 ± 0.79
YGIRYYICKFMLKSFICSWY	-1.33 ± 1.1
YGLGKTVFTTDGPGMLNGQA	1.18 ± 0.47
YGPLTIDGFRHAYV	0.95 ± 0.29
YGRCVDLFCGIRYLHGSRLA	-0.299 ± 1.1
YGRGWHCTLYCIN	0.008 ± 0.8
YGTCFS	0.191 ± 0.47
YGWFFVYDEVLLFISYSNVV	inactive
YGYKMVTSYVGFL	0.753 ± 0.81
YGYSIYLFTGCVKTVLFVSD	4.68 ± 0.048
YHCPVSW	-0.254 ± 0.32
YHEVFLTLSIEWRMMLWVG	-0.318 ± 0.28
YHGYLPD	-0.826 ± 0.63
YHKAIFFGF	-0.563 ± 0.64
YHLLGALYNDAWVIWETTVL	-0.116 ± 0.76
YHSTTLTFERAQPSHNNTRL	3.32 ± 0.1
YHVVVMRSVYTVLTYNRVGA	0.334 ± 0.65
YHYNNNRWVTGHFQWIWSLY	6.453 ± 0.029
YIIFGSRLVDRGSLQ	2.95 ± 0.16
YIIIYLTRHTGVRDVYVSGG	-0.79 ± 1
YIISYFLKMGSQ	4.95 ± 0.092
YILRMLLRVLSVCVCSLQRS	-0.091 ± 0.79

Substance	amyloid nucleation score
YILRSANLM	-0.406 ± 0.3
YIMTYDYVCKNVGWYFTRC	inactive
YIPARSRMGYVAQKLGTTRL	-0.025 ± 0.61
YIPLVVLHFSVRVWELSYWS	0.115 ± 1
YISFVGW	-2.23 ± 0.62
YISGQWCLMCRRRGISACVR	-0.182 ± 0.55
YISRILYHNGKSDRDGQRDY	-0.119 ± 0.65
YISVCSYCH	4.9 ± 0.056
YITAGFKESTSGQRQLRSWL	2.08 ± 0.083
YIVLCYSFRFVFF	inactive
YKCRDLFGGRQINREHYLCY	-1.26 ± 0.62
YKISDRVALISYPNFAIVWT	-2.25 ± 0.78
YKMPK	0.443 ± 0.8
YKSDYSKLLCWKNYKFWLVC	-1.07 ± 0.37
YLASNLEDKWVWDGFMLVSR	0.356 ± 0.74
YLDTHWIYY	0.056 ± 0.63
YLFKPSPTSHYCAFCTVYRN	3.84 ± 0.079
YLGLPLQDLRRVIMSEHVLV	0.779 ± 0.37
YLGTDGFNDGLVGLTTNIMS	-0.798 ± 0.47
